The DeepSol protein solubility set

test: soluble on expression in E. coli; label from the status in PepcDB or PDB records

Sequence	soluble on expression in E. coli
MSLSSIRKKDVERFILSDDYKPMVLKELYKKFRAKTREQRKKVREVVKKLEKEGRIFRDSRGRYRKLGEDLKVGTIEFTRSGYVAFVITDDFEEIAVPVEDTKYAMHKDRVVVEITGTWRGLPRGRVVRVLERGLKRVVGVFDHKGTFGFVVPDDPKIAYDFYVAPENIDGAKPNQKVIAEILKYPSPGKNPEAKVVKVLGDLDDPSIDLPSVIVKHDLPEPGEFPEEVIREANAIPARVRKKDLVGRKDLRDKVIVTIDGEDAKDFDDAISVEKLPNGNYLLGVHIADVSHYVKEGSALDQEAFKRGTSVYLIDTVIPMLPFRLSNGICSLVEGKDRLTMSVEMEIDRDGRVVRYDVYPSVIKSKKRMIYERVNEFLEDPSSMKEYEPFKDLIYNAVELAEILREARRKRGAILDIESDEVKVILDENGQVVDIVPRKRGIAEKLIEEFMIRANETVAEIFDHAGLPFMYRVHEEPDPETIFQLKNYLEAMGIRAKFSHKIHPGMLQKLLEKVKDHPLRSSVERLLVRSMKRAMYSAVNIGHFGLASYAYTHFTSPIRRYPDLVVHRLLKLYLEQNGYFTPEQIEKFSKVLPKIAKHCSRRERVADEAEWDLVAMKKVEYIARHIGEVFNVVVTNITKFGLFVEIPEKSISGLVHISTLDDYYYYDETRNMLIGKRKGKVFRLGDVLKAKVVRADKIRGEIDFVLVEEDEEEGHHHHHH	not soluble
MSLSSKDLKLSTDVCEQILRVVSRSNRLEELVLENAGLRTDFAQKLASALAHNPNSGLHTINLAGNPLEDRGVSSLSIQFAKLPKGLKHLNLSKTSLSPKGVNSLSQSLSANPLTASTLVHLDLSGNVLRGDDLSHMYNFLAQPNAIVHLDLSNTECSLDMVCGALLRGCLQYLAVLNLSRTVFSHRKGKEVPPSFKQFFSSSLALMHINLSGTKLSPEPLKALLLGLACNHNLKGVSLDLSNCELRSGGAQVLEGCIAEIHNITSLDISDNGLESDLSTLIVWLSKNRSIQHLALGKNFNNMKSKNLTPVLDNLVQMIQDEESPLQSLSLADSKLKTEVTIIINALGSNTSLTKVDISGNGMGDMGAKMLAKALQINTKLRTVIWDKNNITAQGFQDIAVAMEKNYTLRFMPIPMYDASQALKTNPEKTEDALQKIENYLLRNHETRKYLQEQAYRLQQGIVTSTTQQMIDRICVKVQDHLNSLRNCGGDAIQEDLKSAERLMRDAKNSKTLLPNLYHVGGASWAGASGLLSSPIQETLESMAGEVTRVVDEQLKALLESMVDAAENLCPNVMKKAHIRQDLIHASTEKISIPRTFVKNVLLEQSGIDILNKISEVKLTVASFLSDRIVDEILDALSHCHHKLADHFSRRGKTLPQQEGHHHHHH	not soluble
MSLSSKEYFSDTDSFENTPCPLCGSESSSLLYEINSYKYNKCNNCELVYLNPRLKEESLLEYYAQDSFYAEYSSGTGYEIQERALRSTFSRYMKELHKRNVTGGKLLEIGCGFGFLLDEAKNYFDYRIGTDFSSEAVSHAKKYADNVYCGGLEAIPSDTSTKFDCVITFSVLEHVYNPNTFIQEIQNYMAPNGSLVVSTPFIGGMWYKILGKKWSFFIPPEHVCLYNHNSISQLLKQNGFKNIEMFISSHAWPVAGFLSKMGMRKLSSMTLKLKIGDVPLFVPFTIINIIGSKEGHHHHHH	soluble
MSLSSVNCIEQTTEWTACSKSCGMGFSTRVTNRNRQCEMLKQTRLCMVRPCEQEPEQPTDKKGKKCLRTKKSLKAIHLQFKNCTSLHTYKPRFCGVCSDGRCCTPHNTKTIQAEFQCSPGQIVKKPVMVIGTCTCHTNCPKNNEAFLQELELKTTRGKMEGHHHHHH	not soluble
MSLSTADALDDENTFKILVATDIHLGFMEKDAVRGNDTFVTLDEILRLAQENEVDFILLGGDLFHENKPSRKTLHTCLELLRKYCMGDRPVQFEILSDQSVNFGFSKFPWVNYQDGNLNISIPVFSIHGNHDDPTGADALCALDILSCAGFVNHFGRSMSVEKIDISPVLLQKGSTKIALYGLGSIPDERLYRMFVNKKVTMLRPKEDENSWFNLFVIHQNRSKHGSTNFIPEQFLDDFIDLVIWGHEHECKIAPTKNEQQLFYISQPGSSVVTSLSPGEAVKKHVGLLRIKGRKMNMHKIPLHTVRQFFMEDIVLANHPDIFNPDNPKVTQAIQSFCLEKIEEMLENAERERLGNSHQPEKPLVRLRVDYSGGFEPFSVLRFSQKFVDRVANPKDIIHFFRHREQKEKTGEEINFGKLITKPSEGTTLRVEDLVKQYFQTAEKNVQLSLLTERGMGEAVQEFVDKEEKDAIEELVKYQLEKTQRFLKERHIDALEDKIDEEVRRFRETRQKNTNEEDDEVREAMTRARALREGHHHHHH	not soluble
MSLSTKNHFIFPTYVQMYPYSKDRPFLKQVREKLRYYGYKWLYQKQCSQLVDFLNTETQWQSLFTQDYYRTNTILTTFCDKRFSASERLTAITENLRLAEEKMGRSLCQQLLDQQHIVLTQLTEDLRLSLSINHIDPFEGYFSINIRNQNNERVYDSSFTFLSPNKLLIASIQGPSSDNAQELVKQATKALHGMRPMFMLVNGFKMLAEKWQCELVGIPHKAQGKYRLSARSKILFNYDEFWQENQGEYRHNYWQLPLHIERKQLEDIASKKRSMYRKRYEMLDQMALDIQQLEGHHHHHH	soluble
MSLSTTPGLYAVIKLTHLYLPGTLKIHHLKGQLLDQFSIGEMEYQHQGTKIKIFNLAVNWRFSSLLHKKLPIDSMSAEMIEINQKTPMLILKNIKLSGYLNQQSIKLNTLQFNYWNQLITSQLELSNSFPHVFSGKIRLNPHSTNKNIFSGGVDIGGNRNQIQWGGEFEGPGKITINGSLQQLKQIKQIIKWRDLHWQDNKNHNLKSSQGRIEVSGTIPNLAIDLKSKLGIDQLKNWQMNAAIKGKLPWQWNINATFSQPLDFSSKLDGLYTKFALKMETKNDHHADFLITIAPGHYQMTENNLMPLIQFTGGNIKGSLSQKQFSGQGVLFLDAYKKVNFNFKFPEFNVYQDIAQQTIDAKLSILFNSLDFLQNASPYLINPKGQFLASIHAKGTLNKPIIESKLALNKGSFNIPALGLNITDMVLAVFSKKDGWEATGSIHSSEKKLTLKGQGIFNKELGGTVSIEGSNFPIANNKEFQVNISPQLQVRFTPSLCQITGTIQIPNAHIKPQTFTNSLVATDDIVFTSKNTQPITPLFNTNMSVRVEMGEEVELTFKGLHAYLAGIVTINQLSQGPITANGELTVRKGEYKAYGQDLSIEQGQLIFTGGRIDNPEINLRASKNISNSFGSVSGSSELFNFNNYNNLNVGNNFNVGVEVAGRLQSPKIQLFSNPPTLSQADILSFLVIGRPANQADKAKGQLLLTAISSMNLGTGTNGTQLLEQLKQKLGFDFNVQTTTNFNQQTNKISESTGVVVGKSLSDRIYLSYNVGLSQTDPNVLTLKYILNKFLSIQVSSSDSGNGVDILYTKSTSSPEEGHHHHHH	not soluble
MSLSVEAMIGQLNAEIKRLDRLIRSHLNQHPELKKDFDLLTSIKSVGYQLGLNMLVILRSHDFATAEQAAAFLGVVPVEKYSGTSVRGCPKLSKIGPPEIRAKLYLASLCGLRFNPLMKAMYERLCLRGKGKMCAIGALMRKLVHWCYGVLKTQKPFDVGYLSSYARSACKAAEGHHHHHH	soluble
MSLSVKILFKNATVFPITSRPFKGDVLVSNGKVEKVGENIEDPDAEIVDLTGKFLFPGFVDAHSHIGLFEEGVGYYYSDGNEATDPVTPHVKALDGFNPQDPAIERALAGGVTSVMIVPGSANPVGGQGSVIKFRSIIVEECIVKDPAGLKMAFGENPKRVYGERKQTPSTRMGTAGVIRDYFTKVKNYMKKKELAQKEGKEFTETDLKMEVGEMVLRKKIPARMHAHRADDILTAIRIAEEFGFNLVIEHGTEAYKISKVLAEKKIPVVVGPLLTFRTKLELKDLTMETIAKLLKDGVLIALMCDHPVIPLEFATVQAATAMRYGAKEEDLLKILTVNPAKILGLEDRIGSIEPGKDADLVVWSGHPFDMKSVVERVYIDGVEVFRREGHHHHHH	soluble
MSLTADKYTVAINENALKILGEIVFLMGASQNFAKYPVSFIINYLLPSIYLNQYRIYRTVKDNKPIGFACWAFINDQVEKELIENDINLSVEERNSGENIYVLYFIAPFGHAKQIVHDLKNNIFPNKIVKGLRLDKDGKKVLRVATYYEGHHHHHH	soluble
MSLTADPPACTVPAAGGASTHKLVNAGAEKMIFKIKSSNNNEYRITPVFGFVDPSGSKDITITRTAGAPKEDKLVVHFAAAPADATDAQAAFAAITPAGTITIPMSATA	soluble
MSLTAELQALDAAHHLHPFSANNALGEEGTRVITRARGVWLNDSEGEEILDAMAGLWCVNIGYGRDELAEVAARQMRELPYYNTFFKTTHVPAIALAQKLAELAPGDLNHVFFAGGGSEANDTNIRMVRTYWQNKGQPEKTVIISRKNAYHGSTVASSALGGMAGMHAQSGLIPDVHHINQPNWWAEGGDMDPEEFGLARARELEEAILELGENRVAAFIAEPVQGAGGVIVAPDSYWPEIQRICDKYDILLIADEVICGFGRTGNWFGTQTMGIRPHIMTIAKGLSSGYAPIGGSIVCDEVAHVIGKDEFNHGYTYSGHPVAAAVALENLRILEEENILDHVRNVAAPYLKEKWEALTDHPLVGEAKIVGMMASIALTPNKASRAKFASEPGTIGYICRERCFANNLIMRHVGDRMIISPPLVITPAEIDEMFVRIRKSLDEAQAEIEKQGLMKSEGHHHHHH	not soluble
MSLTALMVGTGRGAKMGILIKNGEVLEAVNDVQTVVFDKTGTLTVGKPQVTDIIGDSKQVLRIAASLEDSSEHPLAAAILAKAKADNISTLPVENFTAIEGKGVAATISGQQGVVGNQKLLGDLTFNKQLQQQETRLQNEAKTVVFVGLDDRIIGLIAIQDAPKPTSKEAIAALRARGLRTVMLTGDNQRVAQAVAQQIGIDEVIADVLPGDKAAQIKQFQHDEGHHHHHH	soluble
MSLTASYETIKARLDGTVLSATFNAPPMNLIGPEVVRDLVALLEELAHPTAPRVVIFDSADADFFFPHVDMTKVPEYTAEAAKAGGPGDASLGMLFRKLSQLPAVTIAKLRGRARGAGSEFLLACDMRFASRENAILGQPEVGIGAPPGAGAIQHLTRLLGRGRALEAVLTSSDFDADLAERYGWVNRAVPDAELDEFVAGIAARMSGFPRDALIAAKSAINAISLPAPAEVRADAALFQQLVRGEKVQQRTAELFKQGFQTRGATELDLGDALGHLKAVDEGHHHHHH	soluble
MSLTDLSMPKPPSVLPDKRQVAASFSRAAGSYESVAELQRSVGSELLSRLPAQFSPVRWLDLGSGTGYFSRALDQVFSGSEGIALDIAEGMLRHAQPLGGAQHFVAGDAEHLPLRDQSCGLIFSSLAVQWCADFAAVLREAHRVLQPSGVFAFASLCVGTLYELRDSWQAVDGQVHVNRFRHEDDYRQLCAASGLQVRSLDVCPQVLHYPDVRSLTHELKALGAHNLNPGRPSGLTGRERIKGMVQAYEAFRQEAGLPATYQVVYAVLEKAEGHHHHHH	not soluble
MSLTDNLVRVVCVSDTHNTKPNLPDGDILIHAGDLTESGTKEELEKQIYWLDSQPHRYKIVIAGNHETFLDRNYHSHHGNERVTMDWKSLIYLENTSAILDLGAGHQLKVFGSPYTPKHGNGAFQYPRTDTTTWEEIPKDTDLLVTHGPPKAHLDLGHLGCRVLRQALWEMESRPLLHVFGHIHGGYGKEEGHHHHHH	soluble
MSLTDPNRLTLFYSPQTRATGMRVLLEELGAPYDLHVLNMKAGEQRQPAYLAINPLGKVPAIRRGDALVTEQVAITIYLADLFPGAGLAPSLDDPLRGPYLRWIAYYGSTFEPAVVDRSMQREPGPAEMSPYADYDTMLGALEAQLATGPYLLGDRFTAADVLWGIALNWTLNFGLVPKKDAFVRYAELVTARPAFRRVDLADAEMAAEGHHHHHH	soluble
MSLTDRTIGEAAELLGVTTRTLRHWDSIGLLQPSWRTTTDYRLYTEDDVERALQILIYRAAGIGLKDIAEVLDQPDSANQHLRRQRELLVEQIGQLHRMVRAVDEILGKDAISVKEKIEIFGEDLPKYQEEAFQRWGEGHHHHHH	soluble
